According to article PMC7048817, “Structure of the processive human Pol δ holoenzyme” (Nature Communications, 2020):

B1: DLDV-PCNA (PCNA D120A, L121A, D122A, V123E) (natural protein, human, UniProt P12004 1-261, looked up)
chain: MFEARLVQGSILKKVLEALKDLINEACWDISSSGVNLQSMDSSHVSLVQLTLRSEGFDTYRCDRNLAMGVNLTSMSKILKCAGNEDIITLRAEDNADTLALVFEAPNQEKVSDYEMKLMAAAEEQLGIPEQEYSCVVKMPSGEFARICRDLSHIGDAVVISCAKDGVKFSASGELGNGNIKLSQTSNVDKEEEAVTIEMNEPVQLTFALRYLNFFTKATPLSSTVTLSMSADVPLVVEYKIADMGHLKYYLAPKIEDEEGS
notes: proliferating cell nuclear antigen, human, full length, with D120A, L121A, D122A and V123E; source: E. coli BL21 (DE3), purified (HisTrap, HiTrap Q, Superdex 200)
B2: p66, regulatory subunit of human Pol δ (natural protein)
chain: ADQLYLENIDEFVTDQNKIVTYKWLSYTLGVHVNQAKQMLYDYVERKRKENSGAQLHVTYLVSGSLIQNGHSCHKVAVVREDKLEAVKSKLAVTASIHVYSIQKAMLKDSGPLFNTDYDILKSNLQNCSKFSAIQCAAAVPRAPAESSSSSKKFEQSHLHMSSETQANNELTTNGHGPPASKQVSQQPKGIMGMFASKAAAKTQETNKETKTEAKEVTNASAAGNKAPGKGNMMSNFFGKAAMNKFKVNLDSEQAVKEEKIVEQPTVSVTEPKLATPAGLKKSSKKAEPVKVLQKEKKRGKRVALSDDETKETENMRKKRRRIKLPESDSSEDEVFPDSPGAYEAESPSPPPPPSPPLEPVPKTEPEPPSVKSSSGENKRKRKRVLKSKTYLDGEGCIVTEKVYESESCTDSEEELNMKTSSVHRPPAMTVKKEPREERKGPKKGTAALGKANRQVSITGFFQRK
notes: DNA polymerase delta subunit p66, human; last visible residue in the map is Ala144; Stood in the assay as a subunit of the Pol δ heterotetramer; also called p66N (its visible N-terminal part); source: Sf9 insect cells, coexpressed with p125, p50 and p12 (MultiBac baculovirus), purified as the heterotetramer
B3: p12, regulatory subunit of human Pol δ (natural protein)
chain: GRKRLITDSYPVVKRREGPAGHSKGELAPELGEEPQPRDEEEAELELLRQFDLAWQYGPCTGITRLQRWCRAKQMGLEPPPEVWQVLKTHPGDPRFQCSLWHLYPL
notes: Stood in the assay as a subunit of the Pol δ heterotetramer; source: Sf9 insect cells, coexpressed with p125, p50 and p66 (MultiBac baculovirus), purified as the heterotetramer

How the values were obtained:
[1] = target: the molecule itself; test: SEC; HiLoad 16/600 Superdex 200 pg in PCNA storage buffer; 2 mg of each PCNA form in 250 μL, 1 mL/min; markers carbonic anhydrase (27 kDa) and conalbumin (75 kDa); monomers to trimer
[2] = target: T1, p50, regulatory subunit of human Pol δ (human, UniProt P49005 1-469); test: cryo-EM structure; Pol δ–DNA–PCNA–dTTP complex with 25/38 primer/template DNA (3' dideoxy terminator); 25 mM HEPES-KOH pH 7.5, 100 mM potassium acetate, 10 mM calcium chloride, 0.02% NP-40, 0.4 mM biotin, 1 mM DTT; 4.1 Å map from the sample frozen after mixing (conformers at 4.3, 4.9, 8.1 Å), 3.0 Å map from the gel-filtered sample in which FEN1 is invisible; conditions: both partners purified
T1 construct: DNA polymerase delta subunit p50 (B-subunit), human; Stood in the assay as a subunit of the Pol δ heterotetramer; also called B-subunit; source: Sf9 insect cells, coexpressed with p125, p66 and p12 (MultiBac baculovirus), purified as the heterotetramer
T1 sequence (P49005 whole entry, stated change not applied): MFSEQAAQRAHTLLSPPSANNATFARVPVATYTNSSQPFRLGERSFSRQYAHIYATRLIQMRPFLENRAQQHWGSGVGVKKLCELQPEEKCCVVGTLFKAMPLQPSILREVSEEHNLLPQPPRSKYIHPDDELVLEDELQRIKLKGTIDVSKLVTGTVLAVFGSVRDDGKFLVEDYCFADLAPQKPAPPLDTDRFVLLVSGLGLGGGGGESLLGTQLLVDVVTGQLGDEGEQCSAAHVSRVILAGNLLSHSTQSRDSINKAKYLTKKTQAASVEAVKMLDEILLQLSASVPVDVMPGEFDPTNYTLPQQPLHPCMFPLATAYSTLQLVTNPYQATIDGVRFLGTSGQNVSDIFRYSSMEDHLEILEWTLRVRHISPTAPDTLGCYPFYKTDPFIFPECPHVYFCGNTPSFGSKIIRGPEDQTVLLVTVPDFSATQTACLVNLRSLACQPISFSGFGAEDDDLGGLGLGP

[3] = target: T2, p125, catalytic subunit of human Pol δ (human, UniProt P28340 1-1107); test: as above; conditions: both partners purified
T2 construct: DNA polymerase delta catalytic subunit p125, human; Stood in the assay as a subunit of the Pol δ heterotetramer; source: Sf9 insect cells, coexpressed with p50, p66 and p12 (MultiBac baculovirus), purified as the heterotetramer
T2 sequence: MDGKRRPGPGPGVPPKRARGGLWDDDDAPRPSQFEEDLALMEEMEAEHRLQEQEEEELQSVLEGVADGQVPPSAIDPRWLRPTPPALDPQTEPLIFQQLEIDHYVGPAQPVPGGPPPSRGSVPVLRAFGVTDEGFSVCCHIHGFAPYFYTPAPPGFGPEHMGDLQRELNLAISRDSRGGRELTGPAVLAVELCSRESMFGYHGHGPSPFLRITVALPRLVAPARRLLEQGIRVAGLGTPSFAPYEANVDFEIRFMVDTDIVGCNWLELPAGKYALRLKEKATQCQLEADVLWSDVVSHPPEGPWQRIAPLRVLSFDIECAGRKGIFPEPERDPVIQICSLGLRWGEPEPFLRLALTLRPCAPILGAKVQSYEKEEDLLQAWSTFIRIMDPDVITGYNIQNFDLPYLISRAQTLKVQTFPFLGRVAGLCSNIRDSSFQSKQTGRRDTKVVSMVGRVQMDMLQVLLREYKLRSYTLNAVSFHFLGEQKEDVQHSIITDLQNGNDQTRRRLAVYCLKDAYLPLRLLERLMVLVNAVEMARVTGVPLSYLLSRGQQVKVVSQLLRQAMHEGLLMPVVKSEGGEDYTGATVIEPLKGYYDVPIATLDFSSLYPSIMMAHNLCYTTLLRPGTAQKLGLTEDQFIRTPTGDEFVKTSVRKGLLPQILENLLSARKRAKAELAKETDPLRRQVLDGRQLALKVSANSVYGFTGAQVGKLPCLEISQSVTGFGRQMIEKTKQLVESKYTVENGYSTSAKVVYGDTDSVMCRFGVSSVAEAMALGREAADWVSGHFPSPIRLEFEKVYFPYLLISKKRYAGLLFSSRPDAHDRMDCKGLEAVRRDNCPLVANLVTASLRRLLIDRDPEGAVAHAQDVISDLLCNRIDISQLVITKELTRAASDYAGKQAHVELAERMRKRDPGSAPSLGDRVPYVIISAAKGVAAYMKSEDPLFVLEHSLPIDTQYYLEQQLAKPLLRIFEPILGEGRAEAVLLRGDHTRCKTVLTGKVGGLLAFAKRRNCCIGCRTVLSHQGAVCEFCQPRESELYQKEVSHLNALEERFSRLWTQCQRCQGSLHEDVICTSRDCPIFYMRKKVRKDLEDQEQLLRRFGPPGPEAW

| Binder | stoichiometry N [1] | binding result [2] | binding result [3] |
| --- | --- | --- | --- |
| B1 | 3 |  |  |
| B2 |  | binds |  |
| B3 |  | binds | binds |
